The values below come from publication PMC9900621, “5-Formyltetrahydrofolate promotes conformational remodeling in a methylenetetrahydrofolate reductase active site and inhibits its activity” (The Journal of Biological Chemistry, 2022).

Positions count from the first letter of the chain named.

The target in data set [1] is T1, methylenetetrahydrofolate reductase (tMTHFR) (Thermus thermophilus, UniProt Q5SLG6, E18Q).
T1 construct: gene TTHA0327; recombinant, uncleavable C-terminal hexa-Histidine tag
T1 sequence (Q5SLG6 1-296 E18Q): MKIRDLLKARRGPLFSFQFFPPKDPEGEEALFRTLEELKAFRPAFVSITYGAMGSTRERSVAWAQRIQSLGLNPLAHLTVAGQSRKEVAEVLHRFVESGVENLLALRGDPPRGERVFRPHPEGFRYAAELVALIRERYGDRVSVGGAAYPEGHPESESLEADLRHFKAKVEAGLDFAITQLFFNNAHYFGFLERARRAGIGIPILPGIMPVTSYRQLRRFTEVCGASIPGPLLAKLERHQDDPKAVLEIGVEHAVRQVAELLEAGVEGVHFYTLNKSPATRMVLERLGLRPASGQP
The data set can be described thus: crystal structure ([…] Å, pH […]). The format is binding.

Data set [2] deals with the molecule itself. The data set can be described thus: crystal structure; tMTHFR cocrystallised with CHO-H4folate, FAD-replete; reservoir 0.1 M sodium acetate pH 4.5, 2.5 M NaCl, 0.2 M lithium sulfate, 1.2% myo-inositol, 4 °C; 1.45 Å.
Data set [3] deals with the molecule itself. Briefly: crystal structure; folate-free tMTHFR Glu18Gln, as purified, with 0.6 mM CH3-H4folate; reservoir 0.1 M Hepes pH 7.8, 1 M LiCl, 20% PEG 6000, 20 °C, hanging drop; 1.90 Å.

`Cc1cc2nc3c(=O)[nH]c(=O)nc-3n(C[C@H](O)[C@H](O)[C@H](O)COP(=O)(O)OP(=O)(O)OC[C@H]3O[C@@H](n4cnc5c(N)ncnc54)[C@H](O)[C@@H]3O)c2cc1C` [FAD]: in data set [1], the “crystal structure (1.90 Å, pH 7.8)” value is given as “presence of a small-molecule was found in the active site near FAD”.

B1: Thermus thermophilus HB8 methylenetetrahydrofolate reductase (tMTHFR), wild type (enzyme)
chain: T1 sequence (Q5SLG6 1-296 E18Q) with Q18E
notes: Uncleavable hexa-histidine tag on the C-terminus; Crystallised FAD-replete, with or without CHO-H4folate; also called tMTHFR^wt; MTHFR^wt; not shown: His6, C-terminal, kept
In the case of B1, in data set [2], the binding result was “binds”.

B2: Thermus thermophilus HB8 methylenetetrahydrofolate reductase Glu18Gln mutant (enzyme)
chain: T1 sequence (Q5SLG6 1-296 E18Q)
notes: methylenetetrahydrofolate reductase of Thermus thermophilus HB8 with Glu18Gln, expressed from pET(tMR^Glu18Gln-H); Uncleavable hexa-histidine tag on the C-terminus; Crystallised as purified, with 0.6 mM CH3-H4folate that could not be assigned in the density; also called tMTHFR^Glu18Gln; MTHFR^Glu18Gln; not shown: His6, C-terminal, kept
Take B2: in data set [3], the binding result was “binds”.
